# Reference: article PMC11912907, “RNA recognition by minimal ProQ from Neisseria meningitidis”
# T1: ProQ (minimal ProQ, FinO domain with short N- and C-terminal extensions) (Neisseria meningitidis) (UniProt Q9JY98)
# T1 sequence: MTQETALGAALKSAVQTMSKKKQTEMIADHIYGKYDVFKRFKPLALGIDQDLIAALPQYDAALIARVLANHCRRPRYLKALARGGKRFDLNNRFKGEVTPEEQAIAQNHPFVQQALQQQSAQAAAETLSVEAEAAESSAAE
# T2: ProQ (minimal ProQ, FinO domain with short N- and C-terminal extensions) (Neisseria meningitidis, UniProt Q9JY98 1-141)
# T2 sequence: T1 sequence
# B1: AniS-U7 (structured_RNA)
# RNA: GGUUUCCUCUUGAUGUGUGUGUUUGGGUGUGGCUGCCGCCACCCCUUUUUUU
# B2: AniS-U6 (structured_RNA)
# RNA: GGUUUCCUCUUGAUGUGUGUGUUUGGGUGUGGCUGCCGCCACCCCUUUUUU
# B3: AniS-loop (structured_RNA)
# RNA: GGUUUCCUCUUGAUGUGUGUGUUUGGGUGUGGCGAAAGCCACCCCUUUUUUUU
# B4: intergenic (structured_RNA)
# RNA: GGUAAUGCCGAAAGGGGUUUGACGAUGCCGGCGUGCGCUGUCAAACCCUUUUUCU
# B5: rpmG-U6AU2 (structured_RNA)
# RNA: GGGAUUUCAGUUUGAAAGCAAAGCCUCCGACUGUUCGGAGGCUUUUUUAUU
# Experiments:
# [1] = target: T1, ProQ (minimal ProQ, FinO domain with short N- and C-terminal extensions) (Neisseria meningitidis); assay: EMSA; conditions: 25 mM Tris pH 7.5, 150 mM NaCl, 5% glycerol, 1 mM MgCl2, 1 nM 32P-RNA, ProQ up to 50 nM, 30 min at room temperature; 6% native gel at 4 C
# [2] = target: T2, ProQ (minimal ProQ, FinO domain with …); assay: EMSA; max bound 85%; 25 mM Tris pH 7.5, 150 mM NaCl, 5% glycerol, 1 mM MgCl2, 1 nM 32P-RNA, ProQ up to 50 nM, 30 min at room temperature; 6% native gel at 4 C; conditions: protein: recombinant; tags: N-terminal His6-TEV, cleaved; one extra N-terminal Ser remains; label: 5'-32P; terminator hairpin, 5-U tail
# [3] = target: T2, ProQ (minimal ProQ, FinO domain with …); assay: EMSA; max bound 58%; 25 mM Tris pH 7.5, 150 mM NaCl, 5% glycerol, 1 mM MgCl2, 1 nM 32P-RNA, ProQ up to 50 nM, 30 min at room temperature; 6% native gel at 4 C; conditions: protein: recombinant; tags: N-terminal His6-TEV, cleaved; one extra N-terminal Ser remains; label: 5'-32P; terminator hairpin, 4-U tail
# [4] = target: T2, ProQ (minimal ProQ, FinO domain with …); assay: EMSA; max bound 88%; 25 mM Tris pH 7.5, 150 mM NaCl, 5% glycerol, 1 mM MgCl2, 1 nM 32P-RNA, ProQ up to 50 nM, 30 min at room temperature; 6% native gel at 4 C; conditions: protein: recombinant, tags: N-terminal His6-TEV, cleaved, one extra N-terminal Ser remains, label: 5'-32P, terminator hairpin
# [5] = target: T2, ProQ (minimal ProQ, FinO domain with …); assay: EMSA; max bound 79%; 25 mM Tris pH 7.5, 150 mM NaCl, 5% glycerol, 1 mM MgCl2, 1 nM 32P-RNA, ProQ up to 50 nM, 30 min at room temperature; 6% native gel at 4 C; conditions: protein: recombinant; tags: N-terminal His6-TEV, cleaved; one extra N-terminal Ser remains; label: 5'-32P; terminator hairpin, 6-U tail
# [6] = target: T2, ProQ (minimal ProQ, FinO domain with …); assay: EMSA; max bound 90%; 25 mM Tris pH 7.5, 150 mM NaCl, 5% glycerol, 1 mM MgCl2, 1 nM 32P-RNA, ProQ up to 50 nM, 30 min at room temperature; 6% native gel at 4 C; conditions: protein: recombinant; tags: N-terminal His6-TEV, cleaved; one extra N-terminal Ser remains; label: 5'-32P; terminator hairpin, 5-U tail
# [7] = target: T2, ProQ (minimal ProQ, FinO domain with …); assay: EMSA; max bound 53%; 25 mM Tris pH 7.5, 150 mM NaCl, 5% glycerol, 1 mM MgCl2, 1 nM 32P-RNA, ProQ up to 50 nM, 30 min at room temperature; 6% native gel at 4 C; conditions: protein: recombinant; tags: N-terminal His6-TEV, cleaved; one extra N-terminal Ser remains; label: 5'-32P; terminator hairpin, 4-U tail
# [8] = target: T2, ProQ (minimal ProQ, FinO domain with …); assay: EMSA; max bound 81%; 25 mM Tris pH 7.5, 150 mM NaCl, 5% glycerol, 1 mM MgCl2, 1 nM 32P-RNA, ProQ up to 50 nM, 30 min at room temperature; 6% native gel at 4 C; conditions: protein: recombinant; tags: N-terminal His6-TEV, cleaved; one extra N-terminal Ser remains; label: 5'-32P; terminator hairpin, GAAA loop
# [9] = target: T2, ProQ (minimal ProQ, FinO domain with …); assay: EMSA; max bound 91%; 25 mM Tris pH 7.5, 150 mM NaCl, 5% glycerol, 1 mM MgCl2, 1 nM 32P-RNA, ProQ up to 50 nM, 30 min at room temperature; 6% native gel at 4 C; conditions: protein: recombinant; tags: N-terminal His6-TEV, cleaved; one extra N-terminal Ser remains; label: 5'-32P; hairpin, GAAA loop
# [10] = target: T2, ProQ (minimal ProQ, FinO domain with …); assay: EMSA; max bound 80%; 25 mM Tris pH 7.5, 150 mM NaCl, 5% glycerol, 1 mM MgCl2, 1 nM 32P-RNA, ProQ up to 50 nM, 30 min at room temperature; 6% native gel at 4 C; conditions: protein: recombinant; tags: N-terminal His6-TEV, cleaved; one extra N-terminal Ser remains; label: 5'-32P; hairpin, GAAA loop
# [11] = target: T2, ProQ (minimal ProQ, FinO domain with …); assay: EMSA; max bound 64%; 25 mM Tris pH 7.5, 150 mM NaCl, 5% glycerol, 1 mM MgCl2, 1 nM 32P-RNA, ProQ up to 50 nM, 30 min at room temperature; 6% native gel at 4 C; conditions: protein: recombinant; tags: N-terminal His6-TEV, cleaved; one extra N-terminal Ser remains; label: 5'-32P; hairpin, GAAA loop
# [12] = target: T2, ProQ (minimal ProQ, FinO domain with …); assay: EMSA; max bound 53%; Hill fit; 25 mM Tris pH 7.5, 150 mM NaCl, 5% glycerol, 1 mM MgCl2, 1 nM 32P-RNA, ProQ up to 50 nM, 30 min at room temperature; 6% native gel at 4 C; conditions: protein: recombinant; tags: N-terminal His6-TEV, cleaved; one extra N-terminal Ser remains; label: 5'-32P; terminator hairpin, GAAA loop
# [13] = target: T2, ProQ (minimal ProQ, FinO domain with …); assay: EMSA; max bound 86%; 25 mM Tris pH 7.5, 150 mM NaCl, 5% glycerol, 1 mM MgCl2, 1 nM 32P-RNA, ProQ up to 50 nM, 30 min at room temperature; 6% native gel at 4 C; conditions: protein: recombinant; tags: N-terminal His6-TEV, cleaved; one extra N-terminal Ser remains; label: 5'-32P
# [14] = target: T2, ProQ (minimal ProQ, FinO domain with …); assay: EMSA; undetected up to 50 nM ProQ; 25 mM Tris pH 7.5, 150 mM NaCl, 5% glycerol, 1 mM MgCl2, 1 nM 32P-RNA, ProQ up to 50 nM, 30 min at room temperature; 6% native gel at 4 C; conditions: protein: recombinant; tags: N-terminal His6-TEV, cleaved; one extra N-terminal Ser remains; label: 5'-32P; terminator hairpin, no tail
# [15] = target: T2, ProQ (minimal ProQ, FinO domain with …); assay: EMSA; max bound 89%; 25 mM Tris pH 7.5, 150 mM NaCl, 5% glycerol, 1 mM MgCl2, 1 nM 32P-RNA, ProQ up to 50 nM, 30 min at room temperature; 6% native gel at 4 C; conditions: protein: recombinant, tags: N-terminal His6-TEV, cleaved, one extra N-terminal Ser remains, label: 5'-32P, terminator hairpin
# [16] = target: T2, ProQ (minimal ProQ, FinO domain with …); assay: EMSA; max bound 66%; estimated, not accurately fit; 25 mM Tris pH 7.5, 150 mM NaCl, 5% glycerol, 1 mM MgCl2, 1 nM 32P-RNA, ProQ up to 50 nM, 30 min at room temperature; 6% native gel at 4 C; conditions: protein: recombinant; tags: N-terminal His6-TEV, cleaved; one extra N-terminal Ser remains; label: 5'-32P; terminator hairpin, 7 nt 3' tail
molecule,measurement,setting,value
carA-5',Kd,[1],1.3 nM
pnp-5',Kd,[1],7.9 nM
iga-3',Kd,[1],0.3 nM
GGGAUUUCAGUUUGAAAGCAAAGCCUCCGACUGUUCGGAGGCUUUUU (structured_RNA) [rpmG-U5],Kd,[2],0.47 ± 0.27 nM
GGGAUUUCAGUUUGAAAGCAAAGCCUCCGACUGUUCGGAGGCUUUU (structured_RNA) [rpmG-U4],Kd,[3],2.6 ± 3.5 nM
B1,Kd,[4]; 7-U tail,0.82 ± 0.21 nM
B2,Kd,[5],0.7 ± 0.62 nM
GGUUUCCUCUUGAUGUGUGUGUUUGGGUGUGGCUGCCGCCACCCCUUUUU (structured_RNA) [AniS-U5],Kd,[6],6.5 ± 1.3 nM
GGUUUCCUCUUGAUGUGUGUGUUUGGGUGUGGCUGCCGCCACCCCUUUU (structured_RNA) [AniS-U4],Kd,[7],0.9 ± 0.58 nM
GGGAUUUCAGUUUGAAAGCAAAGCCUCCGAGAAAUCGGAGGCUUUUUU (structured_RNA) [rpmG-loop],Kd,[8],0.5 ± 0.34 nM
GGGAUUUCAGUUUGAAAGCAAAGCCUCCGAAAGGAGGCUUUUUU (structured_RNA) [rpmG-loop-44],Kd,[9],4 ± 2 nM
GGGAUUUCAGUUUGAAAGCAAAGCCUGAAAAGGCUUUUUU (structured_RNA) [rpmG-loop-40],Kd,[10],1.2 ± 1.5 nM
GGGAUUUCAGUUUGAAAGCAAAGCGAAAGCUUUUUU (structured_RNA) [rpmG-loop-36],Kd,[11],0.13 ± 0.14 nM
B3,Kd,[12],0.39 ± 0.18 nM
B4,Kd,[13],1.4 ± 1 nM
GGUUUCCUCUUGAUGUGUGUGUUUGGGUGUGGCUGCCGCCACCCC (structured_RNA) [AniS-noU],binding result,[14],no binding
GGGAUUUCAGUUUGAAAGCAAAGCCUCCGACUGUUCGGAGGCUUUUUU (structured_RNA) [rpmG-3'],Kd,"[15]; 6-U 3' tail, 3 U paired with upstream A",1 ± 0.52 nM
B5,Kd,[4]; 9 nt 3' tail,0.22 ± 0.26 nM
GGGAUUUCAGUUUGAAAGCAAAGCCUCCGACUGUUCGGAGGCUUUUUUAU (structured_RNA) [rpmG-U6AU],Kd,[15]; 8 nt 3' tail,0.2 ± 0.23 nM
GGGAUUUCAGUUUGAAAGCAAAGCCUCCGACUGUUCGGAGGCUUUUUUA (structured_RNA) [rpmG-U6A],Kd,[16],< 0.5 nM
